This is an account of results in paper PMC12469269 (2025).

Experiment in all cases: SPR
(Surface plasmon resonance follows binding to a sensor surface in real time, without labels.)

Experiment [1] concerns the target T1, Recombinant Human GRP75/HSPA9B/Mortalin His Protein (human, UniProt P38646 47-679).
In experiment [2] the target is T2, Recombinant Human Vimentin Protein, CF (human, UniProt P08670 1-466).
The target of experiment [3] is T1, Recombinant Human GRP75/HSPA9B/Mortalin …. This is another data set of the same source.
Experiment [4] has as its target T2, Recombinant Human Vimentin Protein, CF. The source holds these as a separate data set.
Experiment [5] concerns the target Mortalin peptide #62 (UniProt P38646).
For experiment [6], the target named is Mortalin peptide #56 (UniProt P38646).

T2 sequence (P08670 whole entry): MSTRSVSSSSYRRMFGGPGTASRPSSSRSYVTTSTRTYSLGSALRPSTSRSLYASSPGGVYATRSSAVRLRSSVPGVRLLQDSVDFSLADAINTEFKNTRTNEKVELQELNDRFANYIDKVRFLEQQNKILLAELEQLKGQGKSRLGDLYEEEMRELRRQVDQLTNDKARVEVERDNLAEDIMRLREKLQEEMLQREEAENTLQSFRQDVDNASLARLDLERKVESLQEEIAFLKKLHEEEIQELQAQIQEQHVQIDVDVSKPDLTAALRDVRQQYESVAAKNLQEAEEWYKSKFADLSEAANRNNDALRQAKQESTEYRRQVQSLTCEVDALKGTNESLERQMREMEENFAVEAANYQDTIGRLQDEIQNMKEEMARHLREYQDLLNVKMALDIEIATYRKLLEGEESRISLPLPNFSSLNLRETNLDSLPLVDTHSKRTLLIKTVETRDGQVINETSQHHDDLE
T1 sequence (P38646 47-679): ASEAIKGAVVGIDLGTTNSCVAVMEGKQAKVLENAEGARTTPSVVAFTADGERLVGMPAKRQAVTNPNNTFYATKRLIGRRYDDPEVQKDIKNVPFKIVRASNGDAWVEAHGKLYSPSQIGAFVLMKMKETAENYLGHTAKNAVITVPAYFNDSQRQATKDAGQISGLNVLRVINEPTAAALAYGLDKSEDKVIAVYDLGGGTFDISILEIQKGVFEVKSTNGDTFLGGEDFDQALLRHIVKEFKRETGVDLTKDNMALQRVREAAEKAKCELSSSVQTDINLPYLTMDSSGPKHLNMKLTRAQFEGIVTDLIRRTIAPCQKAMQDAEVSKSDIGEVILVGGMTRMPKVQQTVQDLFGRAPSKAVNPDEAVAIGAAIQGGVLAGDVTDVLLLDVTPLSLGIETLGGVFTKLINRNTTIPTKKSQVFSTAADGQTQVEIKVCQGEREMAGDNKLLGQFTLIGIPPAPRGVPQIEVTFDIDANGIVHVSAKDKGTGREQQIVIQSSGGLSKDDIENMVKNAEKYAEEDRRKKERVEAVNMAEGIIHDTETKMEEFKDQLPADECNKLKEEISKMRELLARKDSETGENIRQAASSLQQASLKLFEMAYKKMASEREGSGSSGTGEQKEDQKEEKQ

By Kd is commonly meant the constant that tells how readily two partners part at equilibrium. The term koff denotes the first-order rate constant of dissociation. Take VGFPV [SMRwt peptide]: the Kd was found to be 22.6 µM in experiment [1] and 8.8 µM in experiment [2]. Besides, the values for the koff in experiment [3] and in experiment [4] were 0.0152 s⁻¹ and 0.0566 s⁻¹, respectively.

B1: HIV-1 Nef protein (natural protein)
chain: MGGKWSKSSVVGWPTVRERMRRAEPAADGVGAASRDLEKHGAITSSNTAATNAACAWLEAQEEEEVGFPVTPQVPLRPMTYKAAVDLSHFLKEKGGLEGLIHSQRRQDILDLWIYHTQGYFPDWQNYTPGPGVRYPLTFGWCYKLVPVEPDKVEEANKGENTSLLHPVSLHGMDDPEREVLEWRFDSRLAFHHVARELHPEYFKNC
Turning to B1, the Kd was found to be 1900 nM in experiment [5] and 76.9 µM in experiment [6]. For the same molecule, the koff worked out at 0.0037 s⁻¹ in experiment [5], 0.0226 s⁻¹ in experiment [3], 0.000901 s⁻¹ in experiment [4] and 0.0285 s⁻¹ in experiment [6].
